In assay [1] the target is 12 amino acid fragment corresponding to amino acids 71-82 of human α-synuclein (human). In words: cell-based or functional assay.
Assay [2] has as its target wild type human α-synuclein (human) (UniProt P37840). In words: cell-based or functional assay.

As to “M13 filamentous phage (wild-type, prepared with M13K07 helper phage)”, the Thioflavine T (Tht) fluorescence emission at 480 nm of the pre-aggregated peptide in assay [1] was determined as 43 % reduction. The ELISA of α-synuclein oligomers in the insoluble fraction of SH-SY5Y cells in assay [2] lay within 40 to 50 % reduction.

These data come from patent US20110286970A1.
